{"source": "patent US20150374848A1", "about": "“Methods for the Treatment of Head and Neck Squamous Cell Carcinoma” (Vigilant Biosciences, Inc., priority 2010, published 2015)", "key": {"[1]": {"molecular_target": "CD44 as expressed on human HNSCC cell lines (T.Tn, SCC-15, Detroit-562, CAL 27) (human) (UniProt P16070)", "experiment": "flow cytometry on CAL 27 cells, antibody at 20 ug/mL, duplicate samples"}, "[2]": {"tested_on": "T.Tn HNSCC xenograft", "experiment": "established T.Tn HNSCC xenograft model", "assay_type": "in vivo", "conditions": "20 mg/kg i.p. three times per week", "method": "With reference to FIGS. 2 and 3, 6 to 8 week old female SCID mice were implanted with 10 million T.Tn cells in 100 microliters PBS solution injected subcutaneously in the right flank. The mice were randomly divided into 2 treatment groups of 10. When the average tumor volume of the mice reached approximately 264-268 mm^3, 20 mg/kg of chPTA-4621 test antibody or buffer control was administered intraperitoneally to each cohort in a volume of 300 microliters after dilution from the stock concentration with a diluent that contained 2.7 mM KCl, 1 mM KH2PO4, 137 mM NaCl and 20 mM Na2HPO4. The antibody and control samples were then administered three times per week for the duration of the study. Tumor growth was measured about every 7 days with calipers. The study was completed after ten doses of antibody. Body weights of the animals were recorded once per week for the duration of the study. At the end of the study all animals were euthanized according to CCAC guidelines."}, "[3]": {"tested_on": "T.Tn HNSCC cell line", "experiment": "FACS binding to HNSCC cell line T.Tn", "parameters": "species or system human", "conditions": "antibody 20 μg/mL on ice 30 minutes", "method": "(§1) The binding of chPTA-4621 and huPTA-4621 to HNSCC cell lines T.Tn, SCC-15, and Detroit-562 was assessed by flow cytometry (FACS). Cells were prepared for FACS by initially washing the cell monolayer with DPBS (without Ca^++ and Mg^++). Cell dissociation buffer (INVITROGEN, Burlington, ON; for T.Tn, SCC-15 and Detroit-562) was then used to dislodge the cells from their cell culture plates at 37° C. After centrifugation and collection, the cells were resuspended in DPBS containing MgCl2, CaCl2, and 2 percent fetal bovine serum at 4° C. (staining media) and counted, aliquoted to appropriate cell density, spun down to pellet the cells and resuspended in staining media at 4° C. in the presence of test antibodies (chimeric or humanized PTA-4621) or control antibodies (isotype control, anti-EGFR (C225; T.Tn, SCC-15 and Detroit-562). Isotype control and test antibodies were assessed at 20 μg/mL on ice for 30 minutes. For detection of bound antibody, an Alexa Fluor 546 conjugated secondary antibody was used. Prior to the addition of the secondary antibody, the cells were washed once with staining media. The secondary antibody in staining media was then added according to manufacturer's directions. […] Flow cytometric acquisition of the T.Tn, SCC-15 and Detroit-562 cells was assessed by running samples on a FACScan using the CellQuest software (BD Biosciences, Oakville, ON). […]"}, "[4]": {"tested_on": "Detroit-562 HNSCC cell line", "experiment": "FACS binding to HNSCC cell line Detroit-562", "parameters": "species or system human", "conditions": "antibody 20 μg/mL on ice 30 minutes", "method": "as §1"}, "[5]": {"tested_on": "SCC-15 HNSCC cell line", "experiment": "FACS binding to HNSCC cell line SCC-15", "parameters": "species or system human", "conditions": "antibody 20 μg/mL on ice 30 minutes", "method": "as §1"}, "[6]": {"tested_on": "human breast cancer, liver cancer and prostate cancer xenografts", "conditions": "preventative and established models; cited from earlier work"}}, "note": "Entries after “also recorded” stand apart in the source; their conditions may differ."}
{"molecule": "Humanized PTA-4621 (RO5429083) (antibody)", "values": [{"measurement": "fold binding compared to the humanized IgG1 isotype control", "setting": "[1]", "value": 37, "unit": "fold"}]}
{"molecule": "chPTA-4621: chimeric PTA-4621 comprising VH and VL domains of SEQ ID NO:1 and SEQ ID NO:2 (antibody, V domains shown, human constant regions without entry; Synthetically generated peptide) VH: EVKLLESGGGLVQPGGSLKLSCATSGFDFSRYWMSWVRQAPGKGLEWIGEVNPDSTSINYTPSLKDQFIISRDNAKNTLDLQMSKVSSEDTALYYCTRPNYYGSRYHYYAMDYWGQGTSVTVSS VL: DIQMTQTTSSLSVSLGDRVTINCRASQDINNYLNWYQQKPDGTVKLLIYYTSRLHSGVPSRFSGSGSGTDFSLTISNLEKEDVATYFCQQGSTLPFTFGSGTKLEIK", "values": [{"measurement": "clinical signs of toxicity / tolerability", "setting": "[2]", "value": "no clinical signs of toxicity; also recorded: well-tolerated"}, {"measurement": "mean body weight between the groups at end of treatment period", "setting": "[2]", "value": "no significant difference"}, {"measurement": "reduction of tumor growth compared to buffer treated group", "setting": "[2]; ten doses, day 105, p=0.0068", "value": 54.9, "unit": "%"}, {"measurement": "binding to T.Tn cell line (FACS)", "setting": "[3]", "value": "bind"}, {"measurement": "binding to Detroit-562 cell line (FACS)", "setting": "[4]", "value": "bind"}, {"measurement": "binding to SCC-15 cell line (FACS)", "setting": "[5]", "value": "bind"}]}
{"molecule": "PTA-4621: murine monoclonal anti-CD44 antibody produced by hybridoma ATCC PTA-4621; VH SEQ ID NO:1, VL SEQ ID NO:2 (antibody, V domains shown, Synthetically generated peptide) VH: EVKLLESGGGLVQPGGSLKLSCATSGFDFSRYWMSWVRQAPGKGLEWIGEVNPDSTSINYTPSLKDQFIISRDNAKNTLDLQMSKVSSEDTALYYCTRPNYYGSRYHYYAMDYWGQGTSVTVSS VL: DIQMTQTTSSLSVSLGDRVTINCRASQDINNYLNWYQQKPDGTVKLLIYYTSRLHSGVPSRFSGSGSGTDFSLTISNLEKEDVATYFCQQGSTLPFTFGSGTKLEIK", "values": [{"measurement": "anti-tumor effects in pre-clinical xenograft models", "setting": "[6]", "value": "significant anti-tumor effects"}]}
